Data taken from patent US20250297004A1, “NECTIN-4 BINDING AGENTS” (INNATE PHARMA, priority 2022, published 2025).

Assays:
[1] = tested on: SUM190 cells subcutaneously engrafted in CB17-SCID mice; assay: In vivo efficacy of Dxd and exatecan ADCs in SUM190 model; set-up: species or system mouse; conditions: single i.v. injection 10 mg/kg; FIG. 9C
Experimental: Human breast cancer cell line SUM190PT was cultured in the following cell culture medium containing Ham's F12, FBS 1 g/L, HEPES 10 mM, Ethanolamine 5 mM, Insulin 5 μg/mL, Hydrocortisone 1 μg/mL, Apo-Transferrin 5 μg/mL, Triiodo Thyronine (T3) 6.7 ng/ml, Sodium selenite 8.7 ng/ml.
Immunodeficient CB17-SCID mice were used at 7 to 8 weeks of age. […] The ggfg-Dxd linker will release Dxd (deruxtecan) upon cleavage and the PEG (8U)-Val-Ala-PAB-Exatecan linker will release exatecan upon cleavage.
SUM190 cells were subcutaneously engrafted in CB17-SCID immunodeficient mice at the dose of 0.5 million in 100 μl of Matrigel containing growth factor diluted at ½ in PBS. At day 21, when tumors reached a mean volume at 146.9±63.2 mm^3 or 213.2±77.5 mm^3 depending on the experiment, mice were randomized into groups of 8 or 9 mice depending on the experiment and treated intravenously with a single injection of 3 or 10 mg/kg body weight ADC or PBS as control. Tumor growths were followed twice a week. Kaplan Meier survival curves were established by using GraphPad Prism V7 software according to the following criteria: when the tumor volume reached 1500 mm^3, mice were euthanized and considered dead on the day of sacrifice (D). When tumors were highly necrotic, mice were euthanized and considered dead on the same day (D).

[2] = tested on: MC-38 cells endogenously expressing MDR1 P-glycoprotein (Pgp), engineered to express Nectin-4; assay: In vitro efficacy of ADCs in Pgp-expressing cancer model (CTG); format: cell-based, murine
Experimental: MC-38 cells that endogenously express MDR1 P-glycoprotein (Pgp) were engineered to express Nectin-4 and cultured in DMEM+10% FBS. Cells were either treated with vehicle (DSMO) or with cyclosporin A (5 μM, stock solution in DMSO) known to act as an inhibitor of Pgp, in presence of ADCs.
The ADCs and the equivalent isotype control ADCs were used at dose range from 150 to 2.3 10^−3 nM. After five days of co-incubation with cells, cell viability was measured by addition of Cell Titer Glo™ (CTG) substrate. Luminescence vs. Ab concentration was plotted.

B1: 5E7-exatecan: 5E7 conjugated to the exatecan linker PEG (8U)-Val-Ala-PAB-Exatecan (drawing 79), DAR=8 (conjugate)
VH: QVQLQQPGAELVKPGASVKLSCKASGYIFTSYWMHWVKQRPGQGLEWIGEIDPSDSYTNYNQKFKGKATLTLDKSSSTTYMQLSSLTSEDSAVYYCVRGYGNYGDYWGQGTTLTVSSASTKGP
VL: DVVMTQAAFSNPVTLGTSASISCRSSKSLLHSNGITYLYWYLQKPGQSPQLLIYQMSNLASGVPDRFSSSGSGTDFTLRISRVEAEDVGVYYCAQNLELPWTFGGGTKLEIKRTVAAP
efficiency in controlling tumor growth in mice [1]: higher efficiency in controlling tumor growth in mice compared 5E7 conjugated with ggfg-Dxd | anti-tumor activity in presence or absence of the Pgp inhibitor cyclosporine ([2]; 150 nM ADC, normalized to control antibody, cyclosporin A 5 μM, FIG. 10B): highly effective | decrease of cell viability (luminescence) ([2]; MC-38 Pgp/Nectin-4 cells, 5 days, setting of drug resistance, FIG. 10A): highly potent to decrease cell viability
